What follows are binders tested against FLAG-tagged Ang2 mutant A449 (alanine) (human) (UniProt O15123) (assay: ELISA, scFv coated, FLAG-tagged mutant Ang2, anti-FLAG-HRP).
Chain of UniProt O15123 (O15123 other isoform, or with tags, fused parts or gaps mutant): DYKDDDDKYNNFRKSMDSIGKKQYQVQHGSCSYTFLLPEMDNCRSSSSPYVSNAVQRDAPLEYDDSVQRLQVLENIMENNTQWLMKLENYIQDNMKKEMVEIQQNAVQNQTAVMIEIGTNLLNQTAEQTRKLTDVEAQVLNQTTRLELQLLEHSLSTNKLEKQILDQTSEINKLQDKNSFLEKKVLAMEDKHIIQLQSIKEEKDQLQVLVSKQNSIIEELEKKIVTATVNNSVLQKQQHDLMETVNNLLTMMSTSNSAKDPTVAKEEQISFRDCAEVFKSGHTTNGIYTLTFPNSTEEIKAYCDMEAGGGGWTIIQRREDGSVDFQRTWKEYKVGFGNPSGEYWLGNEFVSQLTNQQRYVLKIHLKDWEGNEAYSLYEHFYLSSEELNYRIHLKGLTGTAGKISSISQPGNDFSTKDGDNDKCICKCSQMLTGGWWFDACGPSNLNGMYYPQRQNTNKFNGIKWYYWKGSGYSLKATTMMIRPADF

| Binder | Relative binding (%) with Mutant Ang2 compared to the binding with native Ang2 |
| --- | --- |
| SAIT-ANG2-AB-2-E6 (scFv form) (scFv, V domains shown) VH: EVQLLESGGGLVQTGGSLRLSCAASGFTFSDYAMSWVRQAPGKGLEWVSAIYPDSGNKYYADSVKGRFTISRDNSKNTLYLQMNSLRAEDTAVYYCARHSSDPKVKSGYYDDGMDVWGQGTLVAVSS VL: QSVLTQPPSASGTPGQRVTISCSGSSSNIGNNAVNWYQQLPGTAPKLLIYADSNRPSGVPDRFSGSKSGTSASLAISGLRSEDEADYYCGSWDYSLSGYVFGGGTKLTVLG | 3.3% |
| SAIT-ANG2-AB-7-C9 (scFv form) (scFv, V domains shown) VH: EVQLLESGGGLVQPGGSLRLSCAASGFTFSNYAMSWVRQAPGKGLEWVSAISSGGGNIYYADSVKGRFTISRDNSKNTLYLQMNSLRAEDTAVYYCAKSGIQPSPPSMSSAYAMDVWGQGTLVTVSS VL: QSVLTQPPSASGTPGQRVTISCSGSSSNIGNNDVYWYQQLPGTAPKLLIYANSHRPSGVPDRFSGSKSGTSASLAISGLRSEDEADYYCGTWDYSLSGYVFGGGTKLTVLG | 14.5% |
| SAIT-ANG2-AB-4-F5 (scFv form) (scFv, V domains shown) VH: EVQLLESGGGLVQPGGSLRLSCAASGFTFSDYDMSWVRQAPGKGLEWVSSISHGDSNKYYADSVKGRFTISRDNSKNTLYLQMNSLRAEDTAVYYCAKSSGIQESPPTYYYYGMDVWGQGTLVTVSS VL: QSVLTQPPSASGTPGQRVTISCSGSSSNIGSNAVNWYQQLPGTAPKLLIYADSNRPSGVPDRFSGSKSGTSASLAISGLRSEDEADYYCGSWDYSLSGYVFGGGTKLTVLG | 14% |
| SAIT-ANG2-AB-4-C11 (scFv form) (scFv, V domains shown) VH: EVQLLESGGGLVQPGGSLRLSCAASGFTFSDYAMSWVRQAPGKGLEWVSSIYPDDGNTYYADSVKGRFTISRDNSKNTLYLQMNSLRAEDTAVYYCARHTSHHTSIDGYYYYGMDGWGQGTLVTVSS VL: QSVLTQPPSASGTPGQRVTISCTGSSSNIGNNDVSWYQQLPGTAPKLLIYSDSKRPSGVPDRFSGSKSGTSASLAISGLRSEDEADYYCGSWDYSLSGYVFGGGTKLTVLG | 4.8% |
| SAIT-ANG2-AB-4-F11 (scFv form) (scFv, V domains shown) VH: EVQLLESGGGLVQTGGSLRLSCAASGFTFSDYAMSWVRQAPGKGLEWVSSIYPDDGNTYYADSVKGRFTISRDNSKNTLYLQMNSLRAEDTAVYYCAKHPVRLNLHPMYYYYGMDVWGQGTLVTVSS VL: QSVLTQPPSASGTPGQRVTISCTGSSSNIGNNAVSWYQQLPGTAPKLLIYSDSQRPSGVPDRFSGSKSGTSASLAISGLRSEDEADYYCATWDYSLSAYVFGGGTKLTVLG | 16.7% |
| SAIT-ANG2-AB-3-D3 (scFv form) (scFv, V domains shown) VH: EVQLLESGGGLVQPGGSLRLSCAASGFTFSDYDMSWVRQAPGKGLEWVSGISSDDGNTYYADSVKGRFTISRDNSKNTLYLQMNSLRAEDTAVYYCARPTIDKYTLRGYYSYGMDVWGQGTLVTVSS VL: QSVLTQPPSASGTPGQRVTISCTGSSSNIGSNYVSWYQQLPGTAPKLLIYSDNKRPSGVPDRFSGSKSGTSASLAISGLRSEDEADYYCGTWDDSLNGYVFGGGTKLTVLG | 101% |
